Measurements taken from the DeepSol protein solubility set.

Assay: soluble on expression in E. coli; label from the status in PepcDB or PDB records

| Sequence | soluble on expression in E. coli |
| --- | --- |
| SSHGHSHGGGGCRCAAEREEPPEQRGLAYGLYLRIDLERLQCLNESREGSGRGVFKPWEERTDRSKFVESDADEELLFNIPFTGNVKLKGIIIMGEDDDSHPSEMRLYKNIPQMSFDDTEREPDQTFSLNRDLTGELEYATKISRFSNVYHLSIHISKNFGADTTKVFYIGLRGEWTELRRHEVTICNYEASANPADHRVHQVTPQTHFIS | soluble |
| MKGGCVSQWKAAAGFLFCVMVFASAERPVFTNHFLVELHKGGEDKARQVAAEHGFGVRKLEHHHHHH | not soluble |
| MSLGTIIIVDDNKGVLTAVQLLLKNHFSKVITLSSPVSLSTVLREENPEVVLLDMNFTSGINNGNEGLFWLHEIKRQYRDLPVVLFTAYADIDLAVRGIKEGASDFVVKPWDNQKLLETLLNAASQAKDGKKKNRKKESSPVSAMYWGESSAMQQLRTLIEKVATTNANILITGENGTGKEMLAREIHALSPRSAESMISVDMGAITESLFESELFGHVKGSFTDAHADRTGKFEAADRSSLFLDEIGNLPFHLQAKLLTAIQQRSIVRVGSNQSIPVDIRLICATNRNLQEMVDKGLFREDLLYRINTIHVEIPPLRKRKEDIVPLAERFIARFCKQYDKASISLSPAACEKLTAHAWYGNIRELEHSIEKAVIISDGETIPAEMFQLVQKTENPETETSTLEDMEKAMIRKALDKCGGNLSAVAAQLGITRQTLYNKMKKFGLEGHHHHHH | soluble |
| MGSDKIHHHHHHMSHGAIKHHRHRGRVMYHLRVPESAEDLDAYYQFRWEMLRKPLHQPLGSERDAYDALAHHQTVVDEQGRLVAIGRLSINADNEAAIRFLAVHPDLRGKGLGTLLAITLESVARQEGVKRVVCSAREDAMDFFSKLGFVNQGEISAPQTTPVRHFLMIKPVATLDDILHRADWCGQLQQAWYDHIPLSEKMGVRISQYTGKKFITTMPEAGNQNPHHTLFAGSMFSLATLTGWGLIWLLLRERHLGGTIILADAHIRYSTPVSGRPSAIADLGSLSGDLDRLARGRKARVQLNVELFGDDNKGALFEGVYIVLPAQPDAPLEEGGSEVD | not soluble |
| MPKKEKMAKTPLSDEKQLLLFQQKLLAEEEMAKKKERLLSQFLKDKLAKEEHNSALNLNKINTQWRTVLREVKTRELHKDIEILSQTFERVVDCKDNVIKSLAKDLSEAEEQYAHALRSHLHNVDQLLALQRHRLSLLEESYNMELEALTKEFETERKTIIDQHEKEIHYLQDIFMAMEQNYIDSEYESKLEFQSMWNDLKNMNLEEKHFLRLHLENRVEDLWRKFQDVLKNYTDATEDRKAAFETLQVKDEKSSKEIEVQMKKIQKLQDAITISKGKIMIHSRESEDENRYIRNDKELVLVQLRKLKAQRTQARAASQKNLVRLTLESNATLKALRKIVDKGEKILKLAEICRKFETEEEKVLPFYSSVLTPKEQEGIQKNNLEELTEELTKVMVDYIGMENFWKRYNKVKLEQLSLQHRRAQLLDINGKLREMLKQYLDGISVSDEVLSQLNPLFIVNYQSNLLQPLSIRIAHPGDKQHPTT | soluble |
| MEQIVSSLWSDCLNHLQTKVSPIDYSTWLRPLQASFANEELTLYAQNPFVENWVKDKFLTEIIDLARFLSKNEQLKITIRVGNKPTEQNLSASSTNKEELTQDTVHKFKTGLNGRLTFDNFVQGKSNQLAKAVAQQVADNPGESHCNPFSLYGGTGLGKTHLLHAVGNEILKRNPQARVVYIHSERFVQDMVKALKNNTIENFKKFYRSLDVLMIDDIQFFAKKEASQEEFFHTFNSLFERNKQIILASDHFPKNIENIEERIKSRLNWGVSTAIEPPELETRVAILMKKAEERNVELPEEVAFYLGQKLRTNVRELEGAINRVSAWCNFTKRQITIDAVRETLKDLIASYDHLVTIENIQKIVAEYYNIKMADLKSKSRTRSIARPRQMAMALAKELTSHSLPEIGREFGGRDHTTVMHACKTINELRDTDNSIQEDYTNLTRKLSSLEHHHHHH | soluble |
| MGSDKIHHHHHHMATELFTWHTLSDTLSDFKSGLSLAQNSGAESLLVLTCSQNNYPEEELNALFHACPLKLFGGIYPMLTLKGDLIKQGALIIGFKEAVDVTLFAQLNQVTNESCLEELITSTLKEKNNFCGQDDFLMFYDALISNIEGFIDCLFEHLDHGINIAGGGAGNLDFIQRHCIFTNSGVHSDAILLVALPRTLNTSVAHGWETFDEPFLVSEAQGQTVQSLNYQPAYEVYCQTIESATEYTFNNTDFFDIAKNFPLGIKDINNNIIVRDPILAKNNHLQCFGNIPINSMVYLLESNIDSLVASTEKAAIALLSKLNKTTITTTMVFDCISRALFMEDEFEKELNVIAEHCHLGALFGVLSLGEIANSQSGAIRLLNKSIVISSW | not soluble |
| MGHHHHHHSHDFEFIRRVEASEESLDVVFAGRLIKEKGADLLIKAMKLLPDYSCLIVGEGPEKASLIKSAPENVKFAGFMNYGYLIATLKSAKVFVLPSRREGFGIAALEANACGLPVVTINHPMNAVVEIARETGFIASPSPQDIAEKIKIAMESRKKMRRRCVDYARKF | not soluble |
| MGSDKIHHHHHHMFSISHPGDFESLKIIVNEINKLRKINKKLKKESFEVYVGFPEFVGTGRATLYKPNFEDLAKQVNYAKKHNVRFEVVINASCIGGMHLTPKGISYINWIFSQLKNIGVDSVALSDPYLVDLAKNNGLEVNVSCIALVDSLDKALFWDEKEVYAITLDSSINRHFDIIQEIRENVSCKLKILVNEACLYKCPMRIQHFNFFSHANAQNIPALDDYYYNKCINLRIKKKELIIKSPFIRPEDLKYYKGLVDIFKISGRSHPIGWIKRVINAYLNERWDGNLMELLDCPRELEHFYYLDNRALDGAIEYWKSCNKLCSKCNFCKELAEKALKVKY | not soluble |
| MSAQTDPGYFFMPNHIILIGASEQPYSLGERVLSNLLSTPFQGKITPVNPRHHTIAGLPAYTSLNKIPGNADLIIAVTLPDSYDTLFKTCRKKQLRHIILIQDWDNLSAAELHTAETAIRKHHGNGLNITACTTAGIQLPSLGLNISTQDGYAAGHTAILTGNAAVSRQIDNILNKLRQGTSRHISLHPGISPITSADWLNRFGHSLHTKTAVLHHNPEEDQRKLFSAIRQFTRHTPLILHITCRTTETDRAVLHCLARHCNFLVSFNADDLEAALRAQLSDLPPLSRLDILSDTPAEWLHAHAPKNLTLHFPNLPHHIRNGHLTGTPTPSICHDIASRQLAHPDTQAVLTILSPSGHEDYKKTARALIRLSEQTAKPLLVSSPFSDGITHFDTPTQAIRTLSYRNTAAALKQAQLDIAPPQPCRLKTPQPQNIKKALAAANPSLLAEALHLPPYRHTTHNAVQFQFDSHPLYGDILTARCNGQTTAVLPPFTTLDSRHLARFAELDGTQTLDQFLHTLTVIPEYRQHILGITLNLNGGQYSSDFLLKTPETHDTPKRKNTGKAAQTLEHAAAKMQSAAAYLKHKNPTAAEFLRHTSEAAAELLGSKTETGAAVPNVLAPYPAAYPKTLSLRNNTTVTITPILPEDAEAKQQFVRSLGPEARYTRFMTHTNELPAATLARLCNPDYHCEAAWTAKDADSNIVAVVRHSRLNRNECEFGITLAEHMRGSGLAQKMMELIIQTAAQQGYRTMSADILKTNTPMIKLAEKSGFTLKESDTEKNLYRAYLNLAADKTTEKTNKNLRTDHKIT | not soluble |
| MAHHHHHHMNFPDSRVLSDEFPRRKYKPSSATRLEDIVLKGLHYGQRKLLLSEIEFLSAYLEGRQAGAKPTLVVYAGAANGSHLPFLFQLFEAVKFVLIDPAPFCDAVREISLNKQGPILDLVQGFCTDELCKQLSSSYGSTYDILLVSDIRSGVPEKQSNRENTLMIMRDNDMQRSWCWTLKAEAALLKFHPPYPPCRDRNSRHYDEADDTPESIEYLDGVRLFGVWAPKSSSELRLCVQGPFLQGTSFPMRRYDCTTHEEQCYFYNTDNRYTRDCAAESGILERYLQLFPSAPYSDPTALSMTISNFLGFPLFLPLDSSFSESDARWVTLLYSTRIPTCLELFTTLRGRVTHTVMKQLAEEWQSATTVPKGVSIDSVELTSEFWKAVCAGDLTEAYSFPNIRWRFANLLISRRRKRSASDRAP | not soluble |
| SGIMHQINNVYSLTPLSLPMELTPSCNEFYLKTWSEWEKNGTPGEQRNIAFNRLKICLQNQEAELNLSELDLKTLPDLPPQITTLEIRKNLLTHLPDLPPMLKVIHAQFNQLESLPALPETLEELNAGDNKIKELPFLPENLTHLRVHNNRLHILPLLPPELKLLVVSGNRLDSIPPFPDKLEGLALANNFIEQLPELPFSMNRAVLMNNNLTTLPESVLRLAQNAFVNVAGNPLSGHT | not soluble |
| MLMPRQTTPPLSLPLVGGGRFDLSAETSTRWTLICFYRGLHCPICATYLKELEKRVADFAERGVACVAVSSDSEERAQAMAEKVGGGTLRFAYDLPLAEARDWGLYISTSRGKTSIGIEEPALFSEPGLFLVTPERTLYYGAVQTMPFVR | not soluble |
| MIVMTKQQYQEILEHSRNALPNEACGLLGGRIENGVKYVEKVYLLRNIDESPEHFSMNPKEQFAAVKDMRNNGWELLGNFHSHPATPSRPSEEDIRLAFDPKASYLILSLKDDTPVLKSFNISSGQATQEELSIVGEEALEHHHHHH | soluble |
| SIPAGITAAYIHKGHDTTHGGGEMVLEVPHDKTIPVLRFLRDHSSCLYDCFIDCTAADFPQKPQRFRVVYNLLSLKYSSRIRVQTHVDEVTPIESATCLFKGANWPEREVWDLFGVFFYNHPDLRRILTDYGFEGHPLRKDFPLSGYVEVRYDDTEKRVVIEPVEITQEYRAFDYTSPWEVFPEGGNFEEAEKLPERV | soluble |
| MAHHHHHHMLQNMSNILDRTCWSCFFFFLKRKYSYMRRGTSTYPTTGCPLKKHEGGSHCPRARNWTASAGDIVGNGRRAEVGLARLKS | not soluble |
| MAGTSFLSDLLSGVTERGRALLFSGSKARDRVVDTDIETLCEMLLSSRGEASGMAIAAEILDRWSRFNAAEAVQFLHMLSDRFGAEAAALDKAIDAYRTDKSPMAVIALHNAAEPRRQELLRRLNLAPNGTQKLVRMRERLLETKEDRADLGAVDTDFAHLFSSWFNRGFLTLQPIDWTTPAHILEKIIKYEAVHEIAGWEELRRRLAPADRRCFAFFHPRLRDDPLVFVEVALTRSIPSAIADVLDESRDHIGADTATTAVFYSISNCQDGLRGISFGNFLIKQVVEDLRRDLPGLKEFVTLSPVPGFARWISKIRDPKSGFPLSPEDRNTLVLLDDPTWPEDKARADAVERILLPLAARYFITERTPDNRPVDPVARFHLGNGARLERLNFLGDRSVKAMRQAHGLMVNYLYKLEDIETNHEALAQRGEVAASPAVKALQGKIEPILPEKPKLEHHHHHH | soluble |
| MAHHHHHHMALLQRVAQVMQEVAPLSLADHSWDNVGVLLESPAPNKSNAIMLTIDLTPEVMEECLEKNVEVILAYHPPLFRPVKRLTLQDPKQRIILQAASAGMSIYAPHTSLDAAEGGINDWLASLVAGDGAYTASPIQPTSSYAPNAAEATKATGMGRLVKLKEEVEFCSMVGSLKQQLGLATVRVALPDSWEPSHKVSSVALCAGSGTSVFRLLRLPVHVLLSGEMSHHDVLAATAAGQAVILCEHTNTERGFLKAVLQRTLQAKLEGTTVLVSDKDSDPLTAW | soluble |
